Columns and labels:
[1] = test system: MDMB231 breast cancer cell line; conditions: shown in co-pending WO2006/109045; cited from earlier work
[2] = test system: human microvascular endothelial cells (HMECs); test: Matrigel capillary-like tube formation assay; assay type: cell-based
Description: The effect of the CatS mAb on endothelial cell tube formation was assessed as follows. Two hundred microliter of Matrigel (10 mg/ml) was applied to pre-cooled 48-well plates, incubated for 10 min at 4° C. and then allowed to polymerize for 1 h at 37° C. Cells were suspended in endothelial growth cell medium MV (Promocell), containing 200 nM of the appropriate antibody. Five hundred microliter (1×10^5 cells) were added to each well. As controls, cells were incubated with vehicle-only control medium containing the appropriate volumes of PBS. After 24 h incubation at 37° C. and 5% CO2, cells were viewed using a Nikon Eclipse TE300 microscope.
Using the Matrigel morphogenesis assay described by Grant et al (Cell 1989 Sep. 8; 58 (5): 933-43), capillary-tubule formation assays were performed with human microvascular endothelial cells (HMECs) cultured on Matrigel enabling the endothelial cells form tube-like structures, with invasive sprouts extending from individual cells to form contacts with nearby endothelial cells. FIG. 15a illustrates the results when the HMEC cells were cultured in the presence of two CatS antibodies (1E11 and 1E4) or isotype control.

[3] = test system: other cathepsins; test: binding specificity / cross-reactivity with other cathepsins; conditions: in particular those with the greatest homology to CatS
Text: (§1) The F47 Cathepsin S 1C11 1E11 1E4 cell line which is the hybridoma cell line that produces the IE4 antibody has been deposited with the European Collection of Cell Cultures (“ECACC”) under Accession No. 15072905.

[4] = test system: rat aortic ring segments; test: ex vivo rat aortic arch (ring) assay in Matrigel; assay type: cell-based
Description: Male Wistar rats are euthanised and the thoracic aorta is aseptically removed and sectioned into […] thick rings. The rings are washed ten times in sterile medium to remove any bacteria and embedded into Matrigel on 24 well plates. The wells are supplemented with 2 ml of medium and increasing concentrations of antibodies. The plate is incubated for 8 days and post incubation the Matrigel and rings are fixed in 4% PBS buffered paraformaldehyde and stored in PBS. The extent of vessel development is blindly assessed microscopically by an independent investigator and quantified using a calibrated eyepiece graticule (1 mm/100 μm graduation) at 20× magnification (Olympus BX 50). The extent of vessel length, maximum vessel length and number of vessels in each field of view is measured and compared to time matched sham controls and the % inhibition calculated.
To evaluate further the role of CatS in angiogenesis, an ex vivo rat aortic arch assay was performed. Sections of the aorta (1 mm) were cultured within a thin layer of Matrigel in the presence of the inhibitory antibody and appropriate controls. The formation of tube-like vessels from the aorta were monitored and quantified after 7 days by measuring the reduction in the number of vessels, mean vessel length and maximum vessel length compared to controls.

[5] = examination of major mouse organs after treatment in xenograft model; assay type: in vivo, SCID mice
Description: 6-8 week old female SCID mice were implanted with 2×10^6 HCT116+/+ human colorectal adenocarcinoma cells into each flank. […] They were mixed with equal volumes of matrigel to give a final concentration of 5×10^6 cells/ml. Mice were randomly separated into treatment groups on day 5 after implantation and treated with various regimes of CatS Mab or Isotype control Mab (10 mg/kg) with/without 5Fu (15 mg/kg daily or 70 mg/kg twice weekly). All drugs were administered through a bolus injection. Animals were sacrificed at various time points and tumours were removed for analysis.
Paraffin embedding of formalin-fixed xenograft/organ tissue samples, section cutting and H&E (haematoxylin and eosin) staining of tissue sections were performed as previously described. Immunostaining was performed using the avidin-horseradish peroxidase method (Vectorlabs ABC Kit).
All major mouse organs were examined for architectural changes following treatment.

[6] = molecular target: T1, CatS (Homo sapiens, UniProt P25774); test: fluorimetric assay of CatS proteolytic activity; assay type: biochemical
Text: The ability of an agent, for example a small molecule or antibody, to inhibit the proteolytic activity of Cathepsin S may be tested using any suitable method. For example a fluorimetric assay may be used. In such an assay, any suitable fluorigenic substrate may be used, for example Cbz-Phe-Arg-AMC. An agent is considered to inhibit the proteolytic activity of Cathepsin S if it has the ability to inhibit its activity by a statistically significant amount. For example, in one embodiment, an agent for use as the Cathepsin S inhibitor is able to inhibit the […] activity by at least 10%, for example at least 25%, 50%, 70%, 80% or 90%, when compared to an appropriate control antibody.
As shown in co-pending PCT application WO2006/109045, the contents of which are incorporated herein by reference, which claims priority from GB0507219.4 and GB0507272.3, this antibody has potent inhibitory activity.
as §1

[7] = molecular target: T2, CatS on the cell surface of HCT116 cells (Homo sapiens, UniProt P25774); test: flow cytometry staining of HCT116 cells with CatS monoclonal antibody; assay type: binding; conditions: HCT116 cells stained for CatS
T2 construct: CatS expression is localised to the cell surface on HCT116 cells; endogenous in cells; host or cells: HCT116
Description: Cells were collected from tissue culture plates using a scraper and washed ×3 in PBS (0.01% tween) (5 minute centrifugation at 1500 rpm). Approximately 5×10^5 cells were placed in appropriately labelled tubes. Cells were incubated with 50 μl anti-CatS or Isotype control (Sigma, UK) for 1 hour at room temperature. Following incubation each tube was washed ×3 in PBS (0.01% tween) (5 minute centrifugation at 1500 rpm). Samples were then incubated with a 1 in 15 dilution of FITC-conjugated goat anti-mouse secondary antibody (Sigma, UK) (samples kept in dark at room temperature). Following incubation each tube was washed ×3 in PBS (0.01% tween) (5 minute centrifugation at 1500 rpm). Samples were resuspended in 0.5 ml of PBS prior to immediate analysis using the Cyan flow cytometer (Dako, UK).
HCT116 cells were stained for CatS expression using a CatS monoclonal antibody as before. Cells were grown on glass coverslips, fixed using ice-cold acetone and incubated with CatS antibody at a 1:100 dilution. Coverslips were rinsed with PBS and incubated with antimouse AlexaFluor® 488 labelled secondary antibody. Coverslips were washed again using PBS, mounted using PermaFluor mounting media and visualised by confocal microscopy.
The presence of Cathepsin S on the cell surface of tumour cells was further confirmed using confocal microscopy. […]

[8] = test system: HCT116+/+ human colorectal adenocarcinoma xenograft; test: HCT116+/+ xenograft model, immunohistochemistry of tumour sections; assay type: in vivo, SCID mice; conditions: CatS 1E11+5Fu (IC50) vs Mouse IgG1+5-Fu control
Description: Briefly, sections were deparaffinised by passing from xylene to alcohol to running water. Endogenous peroxidase activity was blocked by incubation in 3% H2O2 in methanol for 10 min. Sections were then boiled in citrate buffer, pH6.0, for 22 min. Incubation in 5% normal horse serum blocking solution was carried out for 20 min at room temp. Sections were incubated with primary antibody at 4° C. overnight. Appropriate isotype controls were used at the same dilutions as primary antibodies. […]

[9] = molecular target: T1, CatS; conditions: fluorigenic substrate; shown in co-pending WO2006/109045; cited from earlier work
[10] = test system: HCT116 colorectal carcinoma cell line; conditions: shown in co-pending WO2006/109045; cited from earlier work
[11] = test system: PC3 prostate carcinoma cell line; conditions: shown in co-pending WO2006/109045; cited from earlier work
[12] = test system: U251mg astrocytoma cell line; conditions: shown in co-pending WO2006/109045; cited from earlier work
[13] = test system: MCF 7 breast cancer cell line; conditions: shown in co-pending WO2006/109045; cited from earlier work
[14] = repeat experiment, up to 10 μg/ml

T1 sequence (P25774 115-331): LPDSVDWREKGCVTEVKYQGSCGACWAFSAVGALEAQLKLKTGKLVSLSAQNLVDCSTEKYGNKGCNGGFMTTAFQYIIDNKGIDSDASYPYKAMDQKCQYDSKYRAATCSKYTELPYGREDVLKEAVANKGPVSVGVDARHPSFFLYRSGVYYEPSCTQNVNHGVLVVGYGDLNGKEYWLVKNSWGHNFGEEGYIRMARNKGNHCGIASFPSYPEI
T2 sequence (P25774 115-331): as above

B1: 1E11: Cathepsin S inhibitory monoclonal antibody; VH Seq ID No: 7, VL Seq ID No: 8, CDRs Seq ID Nos: 1-6 (antibody, listed as Mus musculus, V domains shown)
VH: VQLQESGGVLVKPGGSLKLSCAASGFAFSSYDMSWVRQTPEKRLEWVAYITTGGVNTYYPDTVKGRFTISRDNAKNTLYLQMSSLKSEDTAMYYCARHSYFDYWGQGTTVTVSS
VL: DVLMTQTPLSLPVSLGDQASISCRSSQSLVHSNGNTYLHWYLQKPGQSPKLLIYKVSNRFSGVPDRFSGSGSGTDFTLKISRVEAEDLGVYFCSQTTHVPPTFGSGTKLEIKR
modifications: VH domain amino acid sequence; VL domain amino acid sequence
[1]
  inhibition of tumour cell invasion: potently inhibit tumour cell invasion
[2]; antibody 200 nM, 24 h, vs vehicle-only and isotype control
  tube formation of HMEC cells on Matrigel: almost completely abolished
[2]; summary statement, no concentration given
  capillary tubule formation in Matrigel assay: inhibit capillary tubule formation
[3]
  cross-reactivity with other cathepsins: no cross-reactivity with other cathepsins
[4]; [14]
  reduction in maximum vessel length: 60%
  reduction in mean vessel length: 60%
  reduction in total vessel number: 70%
[4]; up to 600 nM
  reduction in maximum vessel length: greater than 80%
  reduction in mean vessel length: greater than 80%
  reduction in total vessel number: greater than 80%
[5]; nine-day drug regime CatS 1E11+5Fu (IC50)
  architectural / pathological change of major mouse organs: No signs of pathological change
[5]; repeated treatment with 10 mg/kg in combination with chemotherapy
  adverse toxic effect: no adverse toxic effect
[6]
  ability to inhibit the catalytic activity of CatS: can specifically inhibit the activity of CatS
[7]
  increase in fluorescent intensity in comparison to the isotype control: 38%
[8]
  caspase 3 activity in tumour tissue (anti-cleaved caspase-3 staining): increase in caspase 3 activity
[9]
  inhibition of proteolytic activity of CatS: inhibits the proteolytic activity of CatS
[10]
  inhibition of tumour cell invasion: potently inhibit tumour cell invasion
[11]
  inhibition of tumour cell invasion: potently inhibit tumour cell invasion
[12]
  inhibition of tumour cell invasion: potently inhibit tumour cell invasion
[13]
  inhibition of tumour cell invasion: potently inhibit tumour cell invasion

Source: US9321838B2, “Therapy targeting cathepsin S” (Fusion Antibodies Limited, priority 2006, dated 2016)
